B1: modified version of TCR 8 (TCR, V domains shown)
V domain 1: KQEVTQIPAALSVPEGENLVLNCSFTDSAIYNLQWFRQDPGKGLTSLLLIQSSQREQTSGRLNASLDKSSGRSTLYIAASQPGDSATYLCAVRPLGNTPLVFGKGTRLSVIA
V domain 2: KVTQSSRYLVKRTGEKVFLECVQDMDHENMFWYRQDPGLGLRLIYFSYDVKMKEKGDIPEGYSVSREKKERFSLILESASTNQTSMYLCASSLWGASTDTQYFGPGTRLTVLE
B2: modified version of TCR 7 (TCR, V domains shown)
V domain 1: KNQVEQSPQSLIILEGKNCTLQCNYTVSPFSNLRWYKQDTGRGPVSLTIMTFSENTKSNGRYTATLDADTKQSSLHITASQLSDSASYICVVSRDNYGQNFVFGPGTRLSVLP
V domain 2: EPEVTQTPSHQVTQMGQEVILRCVPISNHLYFYWYRQILGQKVEFLVSFYNNEISEKSEIFDDQFSVERPDGSNFTLKIRSTKLEDSAMYFCAITDRTNYGYTFGSGTRLTVVE
B3: modified version of TCR 9 (TCR)
TCR alpha: AQKITQTQPGMFVQEKEAVTLDCTYDTSDPSYGLFWYKQPSSGEMIFLIYQGSYDQQNATEGRYSLNFQKARKSANLVISASQLGDSAMYFCAMRTAGGTSYGKLTFGQGTILTVHPNIQNPDPAVYQLRDSKSSDKSVCLFTDFDSQTNVSQSKDSDVYITDKCVLDMRSMDFKSNSAVAWSNKSDFACANAFNNSIIPEDTFFPSPESSCDVKLVEKSFETDTNLNFQNLSVIGFRILLLKVAGFNLLMTLRLWSS
TCR beta: NAGVTQTPKFRVLKTGQSMTLLCAQDMNHEYMYWYRQDPGMGLRLIHYSVGEGTTAKGEVPDGYNVSRLKKQNFLLGLESAAPSQTSVYFCASSYFGTAYEQYFGPGTRLTVTEDLKNVFPPEVAVFEPSEAEISHTQKATLVCLATGFYPDHVELSWWVNGKEVHSGVCTDPQPLKEQPALNDSRYCLSSRLRVSATFWQNPRNHFRCQVQFYGLSENDEWTQDRAKPVTQIVSAEAWGRADCGFTSESYQQGVLSATILYEILLGKATLYAVLVSALVLMAMVKRKDSRG
B4: modified version of TCR 4 (TCR)
TCR alpha: DAKTTQPNSMESNEEEPVHLPCNHSTISGTDYIHWYRQLPSQGPEYVIHGLTSNVNNRMASLAIAEDRKSSTLILHRATLRDAAVYYCILLVIRGTSYGKLTFGQGTILTVHPNIQNPDPAVYQLRDSKSSDKSVCLFTDFDSQTNVSQSKDSDVYITDKCVLDMRSMDFKSNSAVAWSNKSDFACANAFNNSIIPEDTFFPSPESSCDVKLVEKSFETDTNLNFQNLSVIGFRILLLKVAGFNLLMTLRLWSS
TCR beta: DTGVSQDPRHKITKRGQNVTFRCDPISEHNRLYWYRQTLGQGPEFLTYFQNEAQLEKSRLLSDRFSAERPKGSFSTLEIQRTEQGDSAMYLCASSPGGGNTEAFFGQGTRLTVVEDLNKVFPPEVAVFEPSEAEISHTQKATLVCLATGFFPDHVELSWWVNGKEVHSGVCTDPQPLKEQPALNDSRYCLSSRLRVSATFWQNPRNHFRCQVQFYGLSENDEWTQDRAKPVTQIVSAEAWGRADCGFTSVSYQQGVLSATILYEILLGKATLYAVLVSALVLMAMVKRKDF
B5: modified version of TCR 5 (TCR, V domains shown)
V domain 1: AQKITQTQPGMFVQEKEAVTLDCTYDTSDQSYGLFWYKQPSSGEMIFLIYQGSYDEQNATEGRYSLNFQKARKSANLVISASQLGDSAMYFCAMREGTGTSYGKLTFGQGTILTVHP
V domain 2: DVKVTQSSRYLVKRTGEKVFLECVQDMDHENMFWYRQDPGLGLRLIYFSYDVKMKEKGDIPEGYSVSREKKERFSLILESASTNQTSMYLCASSPWGETHQPQHFGDGTRLSILE
B6: modified version of TCR 3 (TCR)
TCR alpha: AQKITQTQPGMFVQEKEAVTLDCTYDTSDQSYGLFWYKQPSSGEMIFLIYQGSYDEQNATEGRYSLNFQKARKSANLVISASQLGDSAMYFCAMREGRGFKTIFGAGTRLFVKANIQKPDPAVYQLRDSKSSDKSVCLFTDFDSQTNVSQSKDSDVYITDKCVLDMRSMDFKSNSAVAWSNKSDFACANAFNNSIIPADTFFPSPESSCDVKLVEKSFETDTNLNFQNLSVIGFRILLLKVAGFNLLMTLRLWSS
TCR beta: GAGVSQSPRYKVAKRGQDVALRCDPISGHVSLFWYQQALGQGPEFLTYFQNEAQLDKSGLPSDRFFAERPEGSVSTLKIQRTQQEDSAVYLCASSHLAGFTGELFFGEGSRLTVLEDLKNVFPPEVAVFEPSEAEISHTQKATLVCLATGFYPDHVELSWWVNGKEVHSGVCTDPQPLKEQPALNDSRYCLSSRLRVSATFWQNPRNHFRCQVQFYGLSENDEWTQDRAKPVTQIVSAEAWGRADCGFTSESYQQGVLSATILYEILLGKATLYAVLVSALVLMAMVKRKDSRG
B7: TCR 10 (native, clonal T cell line) (TCR, V domains shown)
V domain 1: RKEVEQDPGPFNVPEGATVAFNCTYSNSASQSFFWYRQDCRKEPKLLMSVYSSGNEDGRFTAQLNRASQYISLLIRDSKLSDSATYLCVVNFPSRGAGGTSYGKLTFGQGTILTVHP
V domain 2: DVKVTQSSRYLVKRTGEKVFLECVQDMDHENMFWYRQDPGLGLRLIYFSYDVKMKEKGDIPEGYSVSREKKERFSLILESASTNQTSMYLCASSLSLTGNYGYTFGSGTRLTVVE

The binders below were run against HLA-A2/E6(29-38) tetramer (human; HPV 16) (assay: cell-based or functional assay).
B1 was tested, and the “% CD8+/IC IFNγ+” value was 95%. B2 was tested, and the “% CD8+/IC IFNγ+” value was 70.5%. With B3 the “% CD8+/IC IFNγ+” value was 91.1%. In the case of B4, the “% CD8+/IC IFNγ+” value is reported as 94.2%. With B5 the “% CD8+/IC IFNγ+” value was 43.7%. For B6, the “% CD8+/IC IFNγ+” value was 95.1%.

What follows are binders tested against HLA-A2/E7(11-19) tetramer (human; HPV 16) (assay: cell-based or functional assay).
In the case of B1, the “% CD8+/IC IFNγ+” value is reported as 11.4%. B2 was tested, and the “% CD8+/IC IFNγ+” value was 62.4%. B3 was tested, and the “% CD8+/IC IFNγ+” value was 19.5%. For B4, the “% CD8+/IC IFNγ+” value was 2.5%. For B5, the “% CD8+/IC IFNγ+” value was 7.22%. In the case of B6, the “% CD8+/IC IFNγ+” value is reported as 2.51%.

The binders below were run against T1, HLA-A2/E6(29-38) tetramer (human; HPV 16) (assay: tetramer staining of clonal T cell line vs control).
T1 construct: also called E6(29-38) peptide-MHC tetramer; E6 tet
B7: binds.

These binders were tested against T1, HLA-A2/E6(29-38) tetramer (assay: flow cytometry, tetramer + anti-CD8; transfected Jurkat-derived cells, CD8+ cells).
Experimental: For transfection, the CD4+ and CD4+/CD8+ cell mixtures were transiently transfected with TCR-encoding plasmids and 48 hours after transfection, cells were assessed by flow cytometry for (1) binding of the target peptide in the context of an MHC molecule (HLA:A02:01) by staining with an E6(29-38) peptide- or an E7(11-19) peptide-MHC tetramer reagent, and/or (2) CD8+ independent binding of the target by co-staining the tetramer-labeled cells with an anti-CD8 antibody.
With B3 the “% cells E6 tet+/CD8+ quadrant” value was 42.5% and the “% cells E6 tet+/CD8- quadrant” value was 0.051%.

Reference: US20210284709A1 (JUNO THERAPEUTICS, published 2021)
